# Data as given in patent US20230114801A1 (SYSTIMMUNE, published 2023).
# How the values were obtained:
# human 4-1BB = molecular target: T1, human 4-1BB (human, UniProt Q07011 24-186, limits assumed); experiment: BLI (Octet), binder on AHC sensor; antigen conditions not stated
# T1 construct: Soluble antigen in Octet; construct not described
# human PD-L1 = molecular target: T2, human PD-L1 (human, UniProt Q9NZQ7 19-238); experiment: as above
# T2 construct: Soluble antigen in Octet; bought; also called human PD-L1 (Acro PD1-H5229)
# human CD3 = molecular target: T3, human CD3 (human, UniProt P07766 23-126; P04234 22-105); experiment: BLI (Octet), binder on AHC sensor, His-tagged human CD3 (series from 200 nM or single 100 nM), 1:1 fit
# T3 construct: also called His-tagged human CD3; human CD3 (Acro CDD-H52W1)
# CD19 = molecular target: T4, CD19 (UniProt P15391 20-291, limits assumed); experiment: BLI (Octet), binder on AHC sensor; antigen conditions not stated
# T4 sequence (looked up): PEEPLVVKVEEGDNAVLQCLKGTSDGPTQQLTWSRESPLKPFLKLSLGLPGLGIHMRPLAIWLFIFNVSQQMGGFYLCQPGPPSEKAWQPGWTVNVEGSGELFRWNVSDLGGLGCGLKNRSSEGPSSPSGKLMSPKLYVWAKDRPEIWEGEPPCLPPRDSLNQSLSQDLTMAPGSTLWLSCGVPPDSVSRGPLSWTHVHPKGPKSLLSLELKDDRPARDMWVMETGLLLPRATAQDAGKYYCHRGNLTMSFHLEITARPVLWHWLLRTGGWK
Binder,Kd (human 4-1BB),Kd (human PD-L1),Kd (human CD3),Kd (CD19)
"SI-68P15 (other, penta-miniGNC; D1 αCD3** (humanized framework 1), D2 αCD19, D3 αEGFR (Fab), D4 α4-1BB, D5 αPD-L1) chain 1: EIVMTQSPSTLSASVGDRVIITCQASESISSWLAWYQQKPGKAPKLLIYEASKLASGVPSRFSGSGSGAEFTLTISSLQPDDFATYYCQGYFYFISRTYVNSFGQGTKLTVLGGGGSGGGGSGGGGSGGGGSEVQLVESGGGLVQPGGSLRLSCAASGFTISTNAMSWVRQAPGKGLEWVGVITGRDITYYASWAKGRFTISRDTSKNTVYLQMNSLRAEDTAVYYCARDGGSSAITSNNIWGQGTLVTVSSGGGGSGGGGSQVQLQQSGPGLVKPSETLSITCTVSGFSLTNYGVHWIRQAPGKGLEWLGVIWSGGNTDYNTPFTSRFTITKDNSKNQVYFKLRSVRADDTAIYYCARALTYYDYEFAYWGQGTLVTVSSASTKGPSVFPLAPSSKSTSGGTAALGCLVKDYFPEPVTVSWNSGALTSGVHTFPAVLQSSGLYSLSSVVTVPSSSLGTQTYICNVNHKPSNTKVDKRVEPKSCDKTHTCPPCPAPEAAGGPSVFLFPPKPKDTLMISRTPEVTCVVVDVSHEDPEVKFNWYVDGVEVHNAKTKPREEQYNSTYRVVSVLTVLHQDWLNGKEYKCAVSNKALPAPIEKTISKAKGQPREPQVYTLPPSRDELTKNQVSLSCAVKGFYPSDIAVEWESNGQPENNYKTTPPVLDSDGSFFLVSKLTVDKSRWQQGNVFSCSVMHEALHNHYTQKSLSLSPGGGGGSGGGGSDVVMTQSPSSVSASVGDRVTITCQASQNIRTYLSWYQQKPGKAPKLLIYAAANLASGVPSRFSGSGSGTDFTLTISDLEPGDAATYYCQSTYLGTDYVGGAFGGGTKLTVLGGGGSGGGGSGGGGSGGGGSEVQLVESGGGLVQPGGSLRLSCTASGFTISSYHMQWVRQAPGKGLEYIGTISSGGNVYYASSARGRFTISRPSSKNTVDLQMNSLRAEDTAVYYCARDSGYSDPMWGQGTLVTVSS chain 2: ENVLTQSPASLSASPGERVTITCSASSSVSYMHWYQQKPGQAPKLWIYDTSKLASGVPSRFSGSGSGNDHTLTISSMEPEDFATYYCFQGSVYPFTFGQGTKVTVLGGGGSGGGGSGGGGSGGGGSQVTLKESGPGLVQPGQTLSLTCAFSGFSLSTSGMGVGWIRQPPGKGLEWLAHIWWDDDKRYNPALKSRLTISKDTSKNQVYLQMNSLDAEDTAVYYCARMELWSYYFDYWGQGTLVTVSSGGGGSGGGGSEIVLTQSPSTLSVSPGERATFSCRASQSIGTNIHWYQQKPGKPPRLLIKYASESISGIPDRFSGSGSGTEFTLTISSVQSEDFAVYYCQQNNNWPTTFGPGTKLTVLRTVAAPSVFIFPPSDEQLKSGTASVVCLLNNFYPREAKVQWKVDNALQSGNSQESVTEQDSKDSTYSLSSTLTLSKADYEKHKVYACEVTHQGLSSPVTKSFNRGECGGDKTHTCPPCPAPEAAGGPSVFLFPPKPKDTLMISRTPEVTCVVVDVSHEDPEVKFNWYVDGVEVHNAKTKPREEQYNSTYRVVSVLTVLHQDWLNGKEYKCAVSNKALPAPIEKTISKAKGQPREPQVYTLPPSRDELTKNQVSLWCLVKGFYPSDIAVEWESNGQPENNYKTTPPVLDSDGSFFLYSKLTVDKSRWQQGNVFSCSVMHEALHNRFTQKSLSLSPGGGGGSGGGGSDIQMTQSPSTLSASVGDRVTITCQASQSISSHLNWYQQKPGKAPKLLIYKASTLASGVPSRFSGSGSGTEFTLTISSLQPDDFATYYCQQGYSWGNVDNVFGGGTKVTVLGGGGSGGGGSGGGGSGGGGSEVQLLESGGGLVQPGGSLSLSCAASGFSFSSGYDMCWVRQAPGKGLEWIACIAAGSAGITYDANWAKGRFTISRDNSKNTLYLQMNSLRAEDTAVYYCARSAFSFDYAMDLWGQGTLVTVSS",17.1 nM,0.4 nM,22.4 nM,
"SI-68P16 (other, penta-miniGNC; D1 αCD3***** (humanized framework 4), D2 αCD19, D3 αEGFR (Fab), D4 α4-1BB, D5 αPD-L1) chain 1: DPVLTQSPSSLSASVGDRVTISCQSSQSVAKNNNLAWFQQKPGQAPKLLIYSASTLAAGVPSRFSGSGSGTDFTLTISSVQPEDFATYYCSARDSGNIQSFGGGTKVEIKGGGGSGGGGSGGGGSGGGGSQQLVESGGGLVKPGGSLRLSCAASGIDLSSNAIGWVRQAPGKGLEWVGVIFGSGNTYYASWAKGRFTISRSKNTVYLQMNSLRAEDTAVYYCARGGYSSDIWGQGTLVTVSSGGGGSGGGGSQVQLQQSGPGLVKPSETLSITCTVSGFSLTNYGVHWIRQAPGKGLEWLGVIWSGGNTDYNTPFTSRFTITKDNSKNQVYFKLRSVRADDTAIYYCARALTYYDYEFAYWGQGTLVTVSSASTKGPSVFPLAPSSKSTSGGTAALGCLVKDYFPEPVTVSWNSGALTSGVHTFPAVLQSSGLYSLSSVVTVPSSSLGTQTYICNVNHKPSNTKVDKRVEPKSCDKTHTCPPCPAPEAAGGPSVFLFPPKPKDTLMISRTPEVTCVVVDVSHEDPEVKFNWYVDGVEVHNAKTKPREEQYNSTYRVVSVLTVLHQDWLNGKEYKCAVSNKALPAPIEKTISKAKGQPREPQVYTLPPSRDELTKNQVSLSCAVKGFYPSDIAVEWESNGQPENNYKTTPPVLDSDGSFFLVSKLTVDKSRWQQGNVFSCSVMHEALHNHYTQKSLSLSPGGGGGSGGGGSDVVMTQSPSSVSASVGDRVTITCQASQNIRTYLSWYQQKPGKAPKLLIYAAANLASGVPSRFSGSGSGTDFTLTISDLEPGDAATYYCQSTYLGTDYVGGAFGGGTKLTVLGGGGSGGGGSGGGGSGGGGSEVQLVESGGGLVQPGGSLRLSCTASGFTISSYHMQWVRQAPGKGLEYIGTISSGGNVYYASSARGRFTISRPSSKNTVDLQMNSLRAEDTAVYYCARDSGYSDPMWGQGTLVTVSS chain 2: ENVLTQSPASLSASPGERVTITCSASSSVSYMHWYQQKPGQAPKLWIYDTSKLASGVPSRFSGSGSGNDHTLTISSMEPEDFATYYCFQGSVYPFTFGQGTKVTVLGGGGSGGGGSGGGGSGGGGSQVTLKESGPGLVQPGQTLSLTCAFSGFSLSTSGMGVGWIRQPPGKGLEWLAHIWWDDDKRYNPALKSRLTISKDTSKNQVYLQMNSLDAEDTAVYYCARMELWSYYFDYWGQGTLVTVSSGGGGSGGGGSEIVLTQSPSTLSVSPGERATFSCRASQSIGTNIHWYQQKPGKPPRLLIKYASESISGIPDRFSGSGSGTEFTLTISSVQSEDFAVYYCQQNNNWPTTFGPGTKLTVLRTVAAPSVFIFPPSDEQLKSGTASVVCLLNNFYPREAKVQWKVDNALQSGNSQESVTEQDSKDSTYSLSSTLTLSKADYEKHKVYACEVTHQGLSSPVTKSFNRGECGGDKTHTCPPCPAPEAAGGPSVFLFPPKPKDTLMISRTPEVTCVVVDVSHEDPEVKFNWYVDGVEVHNAKTKPREEQYNSTYRVVSVLTVLHQDWLNGKEYKCAVSNKALPAPIEKTISKAKGQPREPQVYTLPPSRDELTKNQVSLWCLVKGFYPSDIAVEWESNGQPENNYKTTPPVLDSDGSFFLYSKLTVDKSRWQQGNVFSCSVMHEALHNRFTQKSLSLSPGGGGGSGGGGSDIQMTQSPSTLSASVGDRVTITCQASQSISSHLNWYQQKPGKAPKLLIYKASTLASGVPSRFSGSGSGTEFTLTISSLQPDDFATYYCQQGYSWGNVDNVFGGGTKVTVLGGGGSGGGGSGGGGSGGGGSEVQLLESGGGLVQPGGSLSLSCAASGFSFSSGYDMCWVRQAPGKGLEWIACIAAGSAGITYDANWAKGRFTISRDNSKNTLYLQMNSLRAEDTAVYYCARSAFSFDYAMDLWGQGTLVTVSS",23.3 nM,0.5 nM,,2.55 nM
"SI-68P13 (other, penta-miniGNC; D1 αEGFR, D2 αCD19, D3 αCD3 (Fab), D4 α4-1BB, D5 αPD-L1) chain 1: EIVLTQSPSTLSVSPGERATFSCRASQSIGTNIHWYQQKPGKPPRLLIKYASESISGIPDRFSGSGSGTEFTLTISSVQSEDFAVYYCQQNNNWPTTFGPGTKLTVLGGGGSGGGGSGGGGSGGGGSQVQLQQSGPGLVKPSETLSITCTVSGFSLTNYGVHWIRQAPGKGLEWLGVIWSGGNTDYNTPFTSRFTITKDNSKNQVYFKLRSVRADDTAIYYCARALTYYDYEFAYWGQGTLVTVSSGGGGSGGGGSEVQLVESGGGLVQPGGSLRLSCAASGFTISTNAMSWVRQAPGKGLEWIGVITGRDITYYASWAKGRFTISRDNSKNTLYLQMNSLRAEDTAVYYCARDGGSSAITSNNIWGQGTLVTVSSASTKGPSVFPLAPSSKSTSGGTAALGCLVKDYFPEPVTVSWNSGALTSGVHTFPAVLQSSGLYSLSSVVTVPSSSLGTQTYICNVNHKPSNTKVDKRVEPKSCDKTHTCPPCPAPEAAGGPSVFLFPPKPKDTLMISRTPEVTCVVVDVSHEDPEVKFNWYVDGVEVHNAKTKPREEQYNSTYRVVSVLTVLHQDWLNGKEYKCAVSNKALPAPIEKTISKAKGQPREPQVYTLPPSRDELTKNQVSLSCAVKGFYPSDIAVEWESNGQPENNYKTTPPVLDSDGSFFLVSKLTVDKSRWQQGNVFSCSVMHEALHNHYTQKSLSLSPGGGGGSGGGGSDVVMTQSPSSVSASVGDRVTITCQASQNIRTYLSWYQQKPGKAPKLLIYAAANLASGVPSRFSGSGSGTDFTLTISDLEPGDAATYYCQSTYLGTDYVGGAFGGGTKLTVLGGGGSGGGGSGGGGSGGGGSEVQLVESGGGLVQPGGSLRLSCTASGFTISSYHMQWVRQAPGKGLEYIGTISSGGNVYYASSARGRFTISRPSSKNTVDLQMNSLRAEDTAVYYCARDSGYSDPMWGQGTLVTVSS chain 2: ENVLTQSPASLSASPGERVTITCSASSSVSYMHWYQQKPGQAPKLWIYDTSKLASGVPSRFSGSGSGNDHTLTISSMEPEDFATYYCFQGSVYPFTFGQGTKVTVLGGGGSGGGGSGGGGSGGGGSQVTLKESGPGLVQPGQTLSLTCAFSGFSLSTSGMGVGWIRQPPGKGLEWLAHIWWDDDKRYNPALKSRLTISKDTSKNQVYLQMNSLDAEDTAVYYCARMELWSYYFDYWGQGTLVTVSSGGGGSGGGGSDVVMTQSPSTLSASVGDRVTINCQASESISSWLAWYQQKPGKAPKLLIYEASKLASGVPSRFSGSGSGTEFTLTISSLQPDDFATYYCQGYFYFISRTYVNSFGGGTKVEIKRTVAAPSVFIFPPSDEQLKSGTASVVCLLNNFYPREAKVQWKVDNALQSGNSQESVTEQDSKDSTYSLSSTLTLSKADYEKHKVYACEVTHQGLSSPVTKSFNRGECGGDKTHTCPPCPAPEAAGGPSVFLFPPKPKDTLMISRTPEVTCVVVDVSHEDPEVKFNWYVDGVEVHNAKTKPREEQYNSTYRVVSVLTVLHQDWLNGKEYKCAVSNKALPAPIEKTISKAKGQPREPQVYTLPPSRDELTKNQVSLWCLVKGFYPSDIAVEWESNGQPENNYKTTPPVLDSDGSFFLYSKLTVDKSRWQQGNVFSCSVMHEALHNRFTQKSLSLSPGGGGGSGGGGSDIQMTQSPSTLSASVGDRVTITCQASQSISSHLNWYQQKPGKAPKLLIYKASTLASGVPSRFSGSGSGTEFTLTISSLQPDDFATYYCQQGYSWGNVDNVFGGGTKVTVLGGGGSGGGGSGGGGSGGGGSEVQLLESGGGLVQPGGSLSLSCAASGFSFSSGYDMCWVRQAPGKGLEWIACIAAGSAGITYDANWAKGRFTISRDNSKNTLYLQMNSLRAEDTAVYYCARSAFSFDYAMDLWGQGTLVTVSS",14.8 nM,1.04 nM,25.9 nM,4.33 nM
